Experimental data taken from doi:10.1101/632075, “Determinants of FtsZ C-terminal linker-dependent regulation of cell wall metabolism in Caulobacter crescentus” (bioRxiv, 2019).

Target: the molecule itself
Assay: negative-stain transmission electron microscopy of polymers; 4 µM protein with 2 mM GTP for 16 minutes in 50 mM HEPES-KOH pH 7.2, 300 mM KCl, 10 mM MgCl2, 0.1 mM EDTA; spotted on carbon coated grids, uranyl formate stain

B1: Caulobacter crescentus FtsZ (natural protein, C. crescentus, UniProt B8H080 1-508, looked up)
chain: MAISLSAPRTTELKPRIVVFGVGGAGGNAVNNMIEAGLEGVEFVVANTDAQQLQFAKTDRRIQLGVQITQGLGAGAHPEVGMSAAEESFPEIGEHLDGAHMVFITAGMGGGTGTGAAPIIAKCARERGILTVGVVTKPFHFEGRHRMRLADSGIQELQRYVDTLIVIPNQNLFRVANERTTFAEAFGMADQVLHSGVRSITDLMVLPGLINLDFADVRTVMTEMGKAMMGTGEGTGEDRALMAAQNAIANPLLDEVSLKGAKAVLVNVTGGMDMTLLEVDEAANAISDQVDPEANIIFGAAFDPSLEGVIRVSVVATGMDGASIAQIEPKPVSRNISAAPLIAETSRPAPQPEPARPTARYEAARPAERPVAFAPEPAPEPEIVMSAPQPEPEAELYYDEPTVAEEPRVSAAPARSVNRIVDPLVDDVAEEPLFPENNYYEERRPQKQGGFFSMFGGGRQRYEQQASAPQAQARSAQSARPQLQPIETPQADDAEDLEIPSFLRRLAN
notes: FtsZ of Caulobacter crescentus, wild type; regions: GTPase domain, C-terminal linker (CTL), C-terminal conserved peptide (CTC); No tag is named; also called CcFtsZ; WT FtsZ; source: E. coli Rosetta(DE3)pLysS, pET21 vector, purified (anion exchange, ammonium sulfate precipitation, SEC)
- binding result: binds

B2: Escherichia coli FtsZ (natural protein, E. coli, UniProt P0A9A6 1-383, looked up)
chain: MFEPMELTNDAVIKVIGVGGGGGNAVEHMVRERIEGVEFFAVNTDAQALRKTAVGQTIQIGSGITKGLGAGANPEVGRNAADEDRDALRAALEGADMVFIAAGMGGGTGTGAAPVVAEVAKDLGILTVAVVTKPFNFEGKKRMAFAEQGITELSKHVDSLITIPNDKLLKVLGRGISLLDAFGAANDVLKGAVQGIAELITRPGLMNVDFADVRTVMSEMGYAMMGSGVASGEDRAEEAAEMAISSPLLEDIDLSGARGVLVNITAGFDLRLDEFETVGNTIRAFASDNATVVIGTSLDPDMNDELRVTVVATGIGMDKRPEITLVTNKQVQQPVMDRYQQHGMAPLTQEQKPVAKVVNDNAPQTAKEPDYLDIPAFLRKQAD
notes: FtsZ of Escherichia coli, wild type; No tag is named; also called EcFtsZ; source: E. coli Rosetta(DE3)pLysS, pET21 vector, purified (anion exchange, ammonium sulfate precipitation, SEC)
- binding result: binds
